Columns and labels:
Pf12p D1D2 [1] = biological target: T1, Pf12p D1D2 (Plasmodium falciparum, UniProt C6KSX1); experiment: BLI; Octet RED96e; nanobodies (5 ug/ml) loaded on Ni-NTA sensors; untagged Pf12p D1D2 6-200 nM in solution (13-400 nM for A10); PBS pH 7.4, 0.1% BSA, 0.05% Tween-20, 25 C; global 1:1 fit; mean of three experiments; conditions: both partners purified
T1 construct: also called recombinant Pf12p; untagged Pf12p D1D2; source: Sf21 insect cells (baculovirus, secreted), purified (Ni-NTA, TEV cleavage, SEC); not shown: His8, N-terminal, cleaved

Pf12p D2 = biological target: T2, Pf12p D2 (Plasmodium falciparum (3D7 entry …, UniProt C6KSX1)); experiment: ELISA; MaxiSorp wells coated with 65 nM recombinant protein (Pf12p D1D2, Pf12p D2, Pf12 or Pf41) in PBS; 65 nM nanobody, 1 h at RT; bound nanobody detected with mouse anti-His and HRP-conjugated anti-mouse; duplicates; conditions: both partners purified
T2 construct: Pf12p, 6-cysteine protein of Plasmodium falciparum, amino acids N168-S341: the C-terminal domain D2 only; Same vector and protocol as Pf12p D1D2; source: Sf21 insect cells (baculovirus, secreted), purified (Ni-NTA, TEV cleavage, SEC); not shown: His8, N-terminal, cleaved

Pf12 D1D2 = biological target: T3, Pf12 D1D2 (Plasmodium falciparum, UniProt C6KSX0); experiment: as above; conditions: both partners purified
T3 construct: Pf12, 6-cysteine protein of Plasmodium falciparum, residues N28-S304 (domains D1 and D2); Called untagged for the BLI; also called untagged Pf12 D1D2; recombinant Pf12; source: Sf21 insect cells (baculovirus), purified following the protocol of Pf12p with some modifications; not shown: His8, N-terminal, cleaved

Pf41 D1D2 = biological target: T4, Pf41 D1D2 (Plasmodium falciparum, UniProt Q8I1Y0); experiment: as above; conditions: both partners purified
T4 construct: Pf41, 6-cysteine protein of Plasmodium falciparum, residues K21-S368 (domains D1 and D2); The Pf41 of the ELISA and of the SEC study; also called recombinant Pf41; source: Sf21 insect cells (baculovirus), purified following the protocol of Pf12p with some modifications

Pf12p D1D2 [2] = biological target: T1, Pf12p D1D2; experiment: far-Western, overlay or dot blot; purified Pf12p D1D2 run on 4-12% Bis-Tris SDS-PAGE under reduced and non-reduced conditions, blotted on PVDF, probed with 0.5 ug/ml nanobody, detected with HRP-conjugated goat anti-llama IgG; conditions: both partners purified
Pf12p D1D2 [3] = biological target: T1, Pf12p D1D2; experiment: ELISA; MaxiSorp wells coated with 65 nM recombinant protein (Pf12p D1D2, Pf12p D2, Pf12 or Pf41) in PBS; 65 nM nanobody, 1 h at RT; bound nanobody detected with mouse anti-His and HRP-conjugated anti-mouse; duplicates; conditions: both partners purified
[4] = biological target: Nine out of 10 nanobodies (alpaca); experiment: BLI; Octet RED96e; nanobodies (5 ug/ml) loaded on Ni-NTA sensors; untagged Pf12p D1D2 6-200 nM in solution (13-400 nM for A10); PBS pH 7.4, 0.1% BSA, 0.05% Tween-20, 25 C; global 1:1 fit; mean of three experiments
His-tagged Pf41 = biological target: T5, His-tagged Pf41 (Plasmodium falciparum, UniProt Q8I1Y0 21-368); experiment: BLI; His-tagged Pf41 (10 or 20 ug/ml) loaded on Ni-NTA sensors; untagged Pf12 D1D2 or untagged Pf12p D1D2 in solution, 16-500 nM or 31-1000 nM; PBS pH 7.4, 0.1% BSA, 0.05% Tween-20, 25 C; 1:1 fit; conditions: both partners purified
T5 construct: Pf41, 6-cysteine protein of Plasmodium falciparum, residues K21-S368 (domains D1 and D2); The form loaded on Ni-NTA sensors for BLI; a TEV site stands between the His8 tag and Pf41; also called immobilized Pf41; source: Sf21 insect cells (baculovirus), purified following the protocol of Pf12p with some modifications; not shown: His8, N-terminal, kept
T5 sequence: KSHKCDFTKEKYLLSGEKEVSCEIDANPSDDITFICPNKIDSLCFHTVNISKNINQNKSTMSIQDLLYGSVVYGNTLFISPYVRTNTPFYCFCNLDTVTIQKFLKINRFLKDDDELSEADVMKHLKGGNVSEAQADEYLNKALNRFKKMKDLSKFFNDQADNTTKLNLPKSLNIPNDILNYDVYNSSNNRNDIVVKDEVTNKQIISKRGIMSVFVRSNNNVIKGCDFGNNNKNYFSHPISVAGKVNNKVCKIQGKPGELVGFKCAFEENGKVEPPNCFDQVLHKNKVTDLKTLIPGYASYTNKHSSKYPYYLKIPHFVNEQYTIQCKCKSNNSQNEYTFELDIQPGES

B1: nanobody C4 (VHH)
VHH: QVQLQESGGGLVQPGESLRLSCAASTSIFTVYTMGWYRQAPGKLREWVADVTVGDNRDYVDSVKGRFTISRDNATNTVYLQMNNVKPEDTAVYYCNRVPPGPSGSWGQGTQVTVSS
notes: From a phage library (pMES4 phagemid) of an alpaca immunized with Pf12p D1D2; source: E. coli WK6, periplasmic extract, purified (HisTrap, SEC)
Pf12p D1D2 [1]
  binding result: binds
Pf12p D2
  binding result: binds
Pf12 D1D2
  binding result: no binding (tested: 65 nM)
Pf41 D1D2
  binding result: no binding (tested: 65 nM)

B2: nanobody B2 (VHH)
VHH: QVQLQESGGGLVQPGGSLRLSCAASGSAFSRVAMGWYRQAPGKLREYVADITRGGTTDYADSVKGRFTISRDNAKNTIYLQMDSLKPEDTAVYYCNLVPPIRGGYWGQGTQVTVSS
notes: as for B1
Pf12p D2
  binding result: binds
Pf12 D1D2
  binding result: no binding (tested: 65 nM)
Pf41 D1D2
  binding result: no binding (tested: 65 nM)
Pf12p D1D2 [2]
  binding result: binds

B3: nanobody C12 (VHH)
VHH: QVQLQESGGGLVQPGGSLRLSCAASGSAFSRVAMGWYRQAPGKLREYVADITRGGTTDYADSVKGRFTISRDNAKNTVFLQMDSLKPEDTAVYYCNSVPPIRGGYWGQGTQVTVSS
notes: as for B1
Pf12p D2
  binding result: binds
Pf12 D1D2
  binding result: no binding (tested: 65 nM)
Pf41 D1D2
  binding result: no binding (tested: 65 nM)
Pf12p D1D2 [2]
  binding result: binds

B4: nanobody H7 (VHH)
VHH: QVQLQESGGGLVQAGGSLRLSCAASGRTSSSYAVAWFRQAPGKERQFVATIGYDGVTSYYEDSVEGRFTISRDNAKSMVYLQMNSLKPEDTAVYYCGRDRVPGHTWLARPSQADFGSWGQGTQVTVSS
notes: as for B1
Pf12p D1D2 [3]
  binding result: binds
Pf12p D2
  binding result: binds
Pf12 D1D2
  binding result: no binding (tested: 65 nM)
Pf41 D1D2
  binding result: no binding (tested: 65 nM)

B5: nanobody B9 (VHH)
VHH: QVQLQESGGGLVQAGGSLRLSCTASGRTFSNTVMGWFRQAPGKEREFLAHILWSGGLAYYADSVKGRFTISRDNAKNIVYLQMNSLKPEDTAVYYCAARDFGFGNNYDYWGQGTQVTVSS
notes: From a phage library (pMES4 phagemid) of an alpaca immunized with Pf12p D1D2; also called Nb B9; source: E. coli WK6, periplasmic extract, purified (HisTrap, SEC)
Pf12p D1D2 [1]
  binding result: binds
Pf12p D2
  binding result: binds
Pf12 D1D2
  binding result: no binding (tested: 65 nM)
Pf41 D1D2
  binding result: no binding (tested: 65 nM)

B6: nanobody F7 (VHH)
VHH: QVQLQESGGGLVQPGGSLRLSCAASGSAFSRVAMGWYRQAPGKLREYVADITYGGATDYADSVKGRFTISRDNAKNTIYLQMDSLKPEDTAVYYCNLVPPIGGYWGQGTQVTVSS
notes: as for B1
Pf12p D2
  binding result: binds
Pf12 D1D2
  binding result: no binding (tested: 65 nM)
Pf41 D1D2
  binding result: no binding (tested: 65 nM)
Pf12p D1D2 [2]
  binding result: binds

B7: Pf12p D1D2 (domain or fragment)
chain: NGVCDFSSEGLSLLPEEKLDFSVSRNVDKLSDENNVRHCVHFSKGFEYLRFICPMRKDNYEGIEIRPVECFEYIHIEGREHKLSEILKGSLYEKSINDNIMTRDVFIPPTIYEDMFFECTCDNSLTFKNNMIGIRGIMKIHLKKNILYGCDFDHDEKLMKNKTAFTNFYDKQKILPLIGNNNNDDDNNDDDNNNDNNNNDNNNNNNNNNNNNNNNNNNNITCNVTIKKSQVYLGIICPDGYTLYPNDCFKNVIYDNNIIIPLKKIIPHDILYHQDKNKRITFASFTLNINENPPGFTCYCIKDQTNINNPLIVNFHFS
[4]
  Kd: 3 nM
  kon: 100000 M⁻¹ s⁻¹

B8: nanobody B12 (VHH)
VHH: QVQLQESGGGLVQAGGSLRLSCAASGRTFSSLTMGWFRQAPGKEREFVAGNAWNWSDGTTYYADSVRGRFTISRDNAKKTVYLQMNSLKPEDTAVYYCACAGDRPRVRVPVNSNDYDYWGQGTQVTVSS
notes: as for B1
Pf12p D1D2 [1]
  binding result: binds
Pf12 D1D2
  binding result: no binding (tested: 65 nM)
Pf41 D1D2
  binding result: no binding (tested: 65 nM)

B9: Pf12 D1D2 (domain or fragment, Plasmodium falciparum, UniProt C6KSX0 28-304, looked up)
chain: NLTCDFNDVYKLEFHPNQQTSVTKLCNLTPNVLEKVTIKCGSDKLNYNLYPPTCFEEVYASRNMMHLKKIKEFVIGSSMFMRRSLTPNKINEVSFRIPPNMMPEKPIYCFCENKKTITINGSNGNPSSKKDIINRGIVEIIIPSLNEKVKGCDFTTSESTIFSKGYSINEISNKSSNNQQDIVCTVKAHANDLIGFKCPSNYSVEPHDCFVSAFNLSGKNENLENKLKLTNIIMDHYNNTFYSRLPSLISDNWKFFCVCSKDNEKKLVFTVEASISS
notes: Pf12, 6-cysteine protein of Plasmodium falciparum, residues N28-S304 (domains D1 and D2); Called untagged for the BLI; also called untagged Pf12 D1D2; recombinant Pf12; source: Sf21 insect cells (baculovirus), purified following the protocol of Pf12p with some modifications; not shown: His8, N-terminal, cleaved
His-tagged Pf41
  Kd: 144 ± 22.6 nM

B10: nanobody D9 (VHH)
VHH: QVQLQESGGGLVQPGGSLRLSCAASGIIFSSHVMGWYRQAPGKQRELVASFSGDTGAKYADSVKGRFIIRRENAKNMVTLYLQMNSLKPEDTAAYYCHVDRFGTEYWGQGTQVTVSS
notes: as for B1
Pf12p D1D2 [1]
  binding result: binds
Pf12 D1D2
  binding result: no binding (tested: 65 nM)
Pf41 D1D2
  binding result: no binding (tested: 65 nM)

B11: nanobody A10 (VHH)
VHH: QVQLQESGGGLVQPGGSLRLSCAASGIIFSSNTMGWYRQAPGKQRELVASFSGETGANYADSVKGRFIIRRDNAKNAVYLLMNSLKPDDTAAYYCHADRFGTDYWGQGTQVTVSS
notes: as for B1
Pf12p D1D2 [1]
  Kd: ~105 nM
Pf12 D1D2
  binding result: no binding (tested: 65 nM)
Pf41 D1D2
  binding result: no binding (tested: 65 nM)

B12: nanobody G6 (VHH)
VHH: QVQLQESGGGLVQPGGSLRLSCEVSGSIFSIDAMAWYRQAPGKQRELVAAILSGGSTNYADSVKGRFAISRDNAKNTGYLQMNSLKPEDTAVYYCNAEGRVSGWGPTEYDYWGQGTQVTVSS
notes: as for B1
Pf12p D1D2 [1]
  binding result: binds
Pf12p D2
  binding result: binds
Pf12 D1D2
  binding result: no binding (tested: 65 nM)
Pf41 D1D2
  binding result: no binding (tested: 65 nM)

Reference: PMC7886318, “Nanobody generation and structural characterization of Plasmodium falciparum 6-cysteine protein Pf12p” (Biochemical Journal, 2021)
